The values that follow come from patent publication US20260042836A1.

Some results are limits rather than exact numbers.

Test [1] deals with Butyrophilin Subfamily 2 Member A1 (BTN2A1) (human) (UniProt Q7KYR7). Briefly: cell-based or functional assay.
Test [2] has as its target BTN2A1; BTN3A1; BTN3A2/A3 peptide on (human). Put plainly: luciferase killing assay, 20 h; T cells + luciferase target cells (5:1) + purified GAB + 30 µM pamidronate; fusion: anti-CD3 scFv (GAB).
The target of a further test is BTN3A1/A2/A3. Put plainly: cell-based or functional assay.
Test [3] concerns the target BTN2A1; BTN3A1; BTN3A2/A3 peptide on (human). Briefly: luciferase killing assay, 20 h; T cells + three luciferase tumour cell lines (10:1) + purified GAB + 30 µM pamidronate; fusion: anti-CD3 scFv (GAB).

UniProt Q7KYR7, sequence (Q7KYR7 29-527): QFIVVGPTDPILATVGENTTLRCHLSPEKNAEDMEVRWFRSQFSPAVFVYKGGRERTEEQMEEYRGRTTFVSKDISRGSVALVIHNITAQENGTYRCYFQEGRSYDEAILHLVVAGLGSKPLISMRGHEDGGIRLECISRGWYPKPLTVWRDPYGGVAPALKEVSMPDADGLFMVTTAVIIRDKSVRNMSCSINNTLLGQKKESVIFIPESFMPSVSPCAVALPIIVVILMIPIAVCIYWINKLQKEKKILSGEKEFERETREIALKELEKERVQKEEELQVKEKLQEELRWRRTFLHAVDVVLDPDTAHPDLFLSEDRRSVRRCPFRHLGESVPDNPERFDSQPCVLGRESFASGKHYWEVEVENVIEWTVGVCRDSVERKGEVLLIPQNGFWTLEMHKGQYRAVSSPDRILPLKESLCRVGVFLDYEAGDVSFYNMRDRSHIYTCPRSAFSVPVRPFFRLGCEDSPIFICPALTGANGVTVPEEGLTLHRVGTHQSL

B1: Vγ9Vδ2TCR MNP2γE22W (TCR, part only; not given: rest of gamma chain, delta chain, part only)
TCR gamma, part: AGHLEQPQISSTKTLSKTARLWCVVSGITISATSVYWYRERPGEVIQFLVSISYDGTVRKESGIPSGKFEVDRIPETSTSTLTIHNVEKQDIATYYCALWE
For the molecule B1, the killing of luciferase transduced RPMI8226 cells by TCR-transduced αβT cells (MNP2 wt killed around 60%) in test [1] is greater than 90%.

B2: GAB-AJ8sγT81W (TCR, part only; not given: CDR3 delta, constant parts, anti-CD3 scFv, part only)
TCR gamma, part: AGHLEQPQISSTKTLSKTARLECVVSGITISATSVYWYRERPGEVIQFLVSISYDGTVRKESGIPSGKFEVDYIPETSTSWLTIHNVEKQDIATYYCALWE
TCR delta, part: AIELVPEHQTVPVSIGVPATLRCSMKGEAIGNYYINWYRKTQGNTMTFIYREKDIYGPGFKDNFQGDIDIAKNLAVLKILAPSERDEGSYYCACDT
Consider B2, for which the mean fold difference in EC50 of GAB against GAB-AJ8s in test [2] was determined as 2.8 fold. In test [1], this molecule gave an IFNγ production relative to GAB-AJ8s (GAB expression media, MZ1851RC, 30 µM pamidronate) of 2 fold and a fold difference in EC50 of tumor cell killing against GAB-AJ8s of 2.8 fold.

B3: GAB-AJ8s-Vγ9 mutation T83L (TCR, part only; not given: CDR3 delta, constant parts, anti-CD3 scFv, part only)
TCR gamma, part: AGHLEQPQISSTKTLSKTARLECVVSGITISATSVYWYRERPGEVIQFLVSISYDGTVRKESGIPSGKFEVDYIPETSTSTLLIHNVEKQDIATYYCALWE
TCR delta, part: AIELVPEHQTVPVSIGVPATLRCSMKGEAIGNYYINWYRKTQGNTMTFIYREKDIYGPGFKDNFQGDIDIAKNLAVLKILAPSERDEGSYYCACDT
The molecule B3 displayed an IFNγ production relative to GAB-AJ8s (GAB expression media, MZ1851RC, 30 µM pamidronate) in test [1] of 2 fold.

B4: GAB-AJ8sδG31V (TCR, part only; not given: CDR3 delta, constant parts, anti-CD3 scFv, part only)
TCR gamma, part: AGHLEQPQISSTKTLSKTARLECVVSGITISATSVYWYRERPGEVIQFLVSISYDGTVRKESGIPSGKFEVDYIPETSTSTLTIHNVEKQDIATYYCALWE
TCR delta, part: AIELVPEHQTVPVSIGVPATLRCSMKGEAIVNYYINWYRKTQGNTMTFIYREKDIYGPGFKDNFQGDIDIAKNLAVLKILAPSERDEGSYYCACDT
With B4, the IFNγ release after 20 hours of coculture, potency against GAB-AJ8s in the test with BTN3A1/A2/A3 was determined as 10 fold.

B5: GAB-AJ8sγT81H (TCR, part only; not given: CDR3 delta, constant parts, anti-CD3 scFv, part only)
TCR gamma, part: AGHLEQPQISSTKTLSKTARLWCVVSGITISATSVYWYRERPGEVIQFLVSISYDGTVRKESGIPSGKFEVDYIPETSTSTLTIHNVEKQDIATYYCALWE
TCR delta, part: AIELVPEHQTVPVSIGVPATLRCSMKGEAIGNYYINWYRKTQGNTMTFIYREKDIYGPGFKDNFQGDIDIAKNLAVLKILAPSERDEGSYYCACDT
In the case of B5, the mean fold difference in EC50 of GAB against GAB-AJ8s in test [2] was determined as 2.4 fold. Further, in test [1], the IFNγ production relative to GAB-AJ8s (GAB expression media, MZ1851RC, 30 µM pamidronate) was 4.2 fold and the fold difference in EC50 of tumor cell killing against GAB-AJ8s is 2.4 fold.

B6: GAB-AJ8sδK53S (TCR, part only; not given: CDR3 delta, constant parts, anti-CD3 scFv, part only)
TCR gamma, part: AGHLEQPQISSTKTLSKTARLECVVSGITISATSVYWYRERPGEVIQFLVSISYDGTVRKESGIPSGKFEVDYIPETSTSTLTIHNVEKQDIATYYCALWE
TCR delta, part: AIELVPEHQTVPVSIGVPATLRCSMKGEAIGNYYINWYRKTQGNTMTFIYRESDIYGPGFKDNFQGDIDIAKNLAVLKILAPSERDEGSYYCACDT
In the test with BTN3A1/A2/A3, B6 had an IFNγ release after 20 hours of coculture, potency against GAB-AJ8s of 10 fold.

B7: GAB-AJ8sγT83I (TCR, part only; not given: CDR3 delta, constant parts, anti-CD3 scFv, part only)
TCR gamma, part: AGHLEQPQISSTKTLSKTARLECVVSGITISATSVYWYRERPGEVIQFLVSISYDGTVRKESGIPSGKFEVDYIPETSTSTLIIHNVEKQDIATYYCALWE
TCR delta, part: AIELVPEHQTVPVSIGVPATLRCSMKGEAIGNYYINWYRKTQGNTMTFIYREKDIYGPGFKDNFQGDIDIAKNLAVLKILAPSERDEGSYYCACDT
Consider B7, for which the IFNγ production relative to GAB-AJ8s (GAB expression media, MZ1851RC, 30 µM pamidronate) in test [1] was determined as 8.8 fold.

B8: GAB-AJ8sγE22WδG31V (TCR, part only; not given: CDR3 delta, constant parts, anti-CD3 scFv, part only)
TCR gamma, part: AGHLEQPQISSTKTLSKTARLWCVVSGITISATSVYWYRERPGEVIQFLVSISYDGTVRKESGIPSGKFEVDYIPETSTSTLTIHNVEKQDIATYYCALWE
TCR delta, part: AIELVPEHQTVPVSIGVPATLRCSMKGEAIVNYYINWYRKTQGNTMTFIYREKDIYGPGFKDNFQGDIDIAKNLAVLKILAPSERDEGSYYCACDT
Turning to B8, in the test with BTN3A1/A2/A3, the IFNγ release, potency against the single mutants (combined Vγ9 and Vδ2 mutations; RPMI8226 and SCC9) was 10 fold; the T cell mediated killing of RPMI8226 and SCC9, potency against GAB-AJ8s is greater than 100 fold; the T cell mediated killing of RPMI8226 and SCC9, potency against the single Vγ9 or Vδ2 mutants was greater than 10 fold. In test [1], the IFNγ release, potency against the single mutants (combined Vγ9 and Vδ2 mutations; RPMI8226 and SCC9) is 10 fold; the T cell mediated killing of RPMI8226 and SCC9, potency against GAB-AJ8s was greater than 100 fold; the T cell mediated killing of RPMI8226 and SCC9, potency against the single Vγ9 or Vδ2 mutants was greater than 10 fold.

B9: GAB-AJ8sγE22W (TCR, part only; not given: CDR3 delta, constant parts, anti-CD3 scFv, part only)
TCR gamma, part: AGHLEQPQISSTKTLSKTARLWCVVSGITISATSVYWYRERPGEVIQFLVSISYDGTVRKESGIPSGKFEVDYIPETSTSTLTIHNVEKQDIATYYCALWE
TCR delta, part: AIELVPEHQTVPVSIGVPATLRCSMKGEAIGNYYINWYRKTQGNTMTFIYREKDIYGPGFKDNFQGDIDIAKNLAVLKILAPSERDEGSYYCACDT
Turning to B9, the mean fold difference in EC50 of GAB against GAB-AJ8s in test [3] was 15.5 fold. In test [1], this molecule had an IFNγ release after 20 hours of coculture, potency against GAB-AJ8s of 10 fold; an IFNγ release relative to GAB-AJ8s (GAB expression media, T cells with MZ1851RC or SCC9, 30 µM pamidronate) of 5.6 fold; a T cell mediated tumor cell killing (luciferase), activity against GAB-AJ8s greater than 10 fold; a fold difference in EC50 of tumor cell killing between GAB-AJ8s and GAB-AJ8γE22W of 15.5 fold.

B10: GAB-AJ8s-Vγ9 mutation T81I (TCR, part only; not given: CDR3 delta, constant parts, anti-CD3 scFv, part only)
TCR gamma, part: AGHLEQPQISSTKTLSKTARLECVVSGITISATSVYWYRERPGEVIQFLVSISYDGTVRKESGIPSGKFEVDYIPETSTSILTIHNVEKQDIATYYCALWE
TCR delta, part: AIELVPEHQTVPVSIGVPATLRCSMKGEAIGNYYINWYRKTQGNTMTFIYREKDIYGPGFKDNFQGDIDIAKNLAVLKILAPSERDEGSYYCACDT
In test [1], B10 yielded an IFNγ production relative to GAB-AJ8s (GAB expression media, MZ1851RC, 30 µM pamidronate) of 2 fold.

B11: GAB-AJ8sγE22WδK53S (TCR, part only; not given: CDR3 delta, constant parts, anti-CD3 scFv, part only)
TCR gamma, part: AGHLEQPQISSTKTLSKTARLWCVVSGITISATSVYWYRERPGEVIQFLVSISYDGTVRKESGIPSGKFEVDYIPETSTSTLTIHNVEKQDIATYYCALWE
TCR delta, part: AIELVPEHQTVPVSIGVPATLRCSMKGEAIGNYYINWYRKTQGNTMTFIYRESDIYGPGFKDNFQGDIDIAKNLAVLKILAPSERDEGSYYCACDT
Take B11: in the test with BTN3A1/A2/A3, the IFNγ release, potency against the single mutants (combined Vγ9 and Vδ2 mutations; RPMI8226 and SCC9) was 10 fold; the T cell mediated killing of RPMI8226 and SCC9, potency against GAB-AJ8s is greater than 100 fold; the T cell mediated killing of RPMI8226 and SCC9, potency against the single Vγ9 or Vδ2 mutants was greater than 10 fold. Further, in test [1], the IFNγ release, potency against the single mutants (combined Vγ9 and Vδ2 mutations; RPMI8226 and SCC9) was 10 fold; the T cell mediated killing of RPMI8226 and SCC9, potency against GAB-AJ8s was greater than 100 fold; the T cell mediated killing of RPMI8226 and SCC9, potency against the single Vγ9 or Vδ2 mutants was greater than 10 fold.
